From US7105156 (University of California, dated 2006)

Molecular target: T1, p56^RB protein (amino-truncated 56 kDa RB protein, C-terminal half of the RB protein) (Homo sapiens (Human), UniProt P06400 379-928)
T1 sequence: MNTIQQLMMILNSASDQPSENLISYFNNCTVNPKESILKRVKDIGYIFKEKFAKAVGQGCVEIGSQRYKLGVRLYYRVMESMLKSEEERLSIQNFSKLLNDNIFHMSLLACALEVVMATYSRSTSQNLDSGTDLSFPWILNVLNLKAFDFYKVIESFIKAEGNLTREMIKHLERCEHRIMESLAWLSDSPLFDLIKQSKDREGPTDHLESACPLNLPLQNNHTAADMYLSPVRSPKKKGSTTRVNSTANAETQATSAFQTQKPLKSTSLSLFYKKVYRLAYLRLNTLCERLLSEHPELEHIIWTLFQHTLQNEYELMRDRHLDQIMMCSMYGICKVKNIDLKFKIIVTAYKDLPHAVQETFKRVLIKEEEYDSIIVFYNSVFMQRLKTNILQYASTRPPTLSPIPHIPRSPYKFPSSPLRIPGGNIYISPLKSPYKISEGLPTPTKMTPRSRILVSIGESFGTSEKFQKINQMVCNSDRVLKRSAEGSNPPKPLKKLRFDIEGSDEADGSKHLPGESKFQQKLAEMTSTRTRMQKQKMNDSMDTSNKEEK
Assay: cell-based or functional assay

B1: T peptide (SV40 T-antigen peptide, amino acids 101-118) (peptide)
peptide: ENLFCSEEMPSSDDEATA
  percent of injected cells incorporating BrdU (Saos-2 cells, 5 mM T peptide, 500 to 1000-fold molar excess over p56^RB): ~70%
